Test results taken from patent US11274309B2 (dated 2022).

Experiments:
peptide on HLA-A*02:01 = target: T1, peptide on HLA-A*02:01 (human); experiment: activation reporter or marker
T1 peptide: VYALPLKML

peptide on HLA-A*24:02 = target: T2, peptide on HLA-A*24:02 (human); experiment: activation reporter or marker
T2 peptide: VYALPLKML

B1: JG9-TCR (TCR, V domains shown)
Valpha: GQQLNQSPQSMFIQEGEDVSMNCTSSSIFNTWLWYKQEPGEGPVLLIALYKAGELTSNGRLTAQFGITRKDSFLNISASIPSDVGIYFCAGPMKTSYDKVIFGPGTSLSVIP
Vbeta: DAGVIQSPRHEVTEMGQEVTLRCKPISGHDYLFWYRQTMMRGLELLIYFNNNVPIDDSGMPEDRFSAKMPNASFSTLKIQPSEPRDSAVYFCASSSANYGYTFGSGTRLTVV
B1: no recognition (peptide on HLA-A*02:01); no recognition (peptide on HLA-A*24:02).
